We go through one substance from publication PMC9478404.

Experiment in all cases: ITC; DBD (500 μM) titrated into NRD (50 μM) at 19 °C; 150 mM NaCl, 20 mM Tris, 1 mM BME (pH 8); MicroCal VP-ITC; mean of three technical replicates
(ITC needs no label: the signal is the heat of the interaction.)

Test [1] concerns the target B-Myb NRD^510–600 T538A (human) (UniProt P10244).
For test [2], the target named is B-Myb NRD^510–600 (C-terminal half of the NRD) (human) (UniProt P10244).
The target of test [3] is B-Myb NRD^510–600 S577A (human) (UniProt P10244).
Sequence of B-Myb NRD^510–600 S577A (human) (P10244 510-600 S577A): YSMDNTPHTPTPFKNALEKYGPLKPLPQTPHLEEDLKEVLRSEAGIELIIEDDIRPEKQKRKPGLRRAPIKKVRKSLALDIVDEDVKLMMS

Sequence of B-Myb NRD^510–600 (C-terminal half of the NRD) (human) (P10244 510-600): as the sequence (P10244 510-600 S577A) above, with A68S counted along it
Sequence of B-Myb NRD^510–600 T538A (human) (P10244 510-600 T538A): as the sequence (P10244 510-600 S577A) above, with T29A, A68S counted along it

What is called Kd is a measure of binding affinity in units of concentration. With “B-Myb DNA-binding domain (B-Myb^34–183) (from UniProt P10244-1 34-183) (domain or fragment)”, the dissociation constant Kd in test [1] is 6.5 µM; in test [2], 4.9 µM; in test [3] it was 3.2 µM.
